Usually Ki stands for a dissociation constant, usually derived from enzyme kinetics or from competition with a known ligand.

This experiment addresses FGFR1c/alpha-klotho receptor complex, human, pre-formed (SPR analyte) (human) (UniProt P11362). The experiment in a line: SPR competition: FGF23 on the chip surface, FGFR1c-alphaKlotho complex in solution mixed with the competitor; Ki listed at the upper right of the sheet.

B1: Wild Type Human FGF23 c-tail 180-251 (72 amino acid peptide) (peptide)
peptide: SAEDDSERDPLNVLKPRARMTPAPASCSQELPSAEDNSPMASDPLGVVRGGRVNTHAGGTGPEGCRPFAKFI
For B1, the Ki amounted to 31 nM.

B2: N-terminal FGF23 c-tail Fc fusion (Fc fusion, not shown: a dimerising Fc or GST; small tags and cut ends)
chain: SAEDDSERDPLNVLKPRARMTPAPASCSQELPSAEDNSPMASDPLGVVRGGRVNTHAGGTGPEGCRPFAKFI
Molecule B2 had an inhibitory constant (Ki) of 46 nM.
